The values below come from patent publication US20200316166A1, “Drug and Method for Treating Liver Diseases Related to Hepatitis B Viruses in Full-Dose Condition” (Shanghai Hep Pharmaceutical Co., Ltd., priority 2017, published 2020).

In test [1] the target is T1, NTCP (Homo sapiens, UniProt Q14973).
T1 construct: expressed in transfected cells; host or cells: 293 (HEK293) cells
T1 sequence (Q14973 1-349): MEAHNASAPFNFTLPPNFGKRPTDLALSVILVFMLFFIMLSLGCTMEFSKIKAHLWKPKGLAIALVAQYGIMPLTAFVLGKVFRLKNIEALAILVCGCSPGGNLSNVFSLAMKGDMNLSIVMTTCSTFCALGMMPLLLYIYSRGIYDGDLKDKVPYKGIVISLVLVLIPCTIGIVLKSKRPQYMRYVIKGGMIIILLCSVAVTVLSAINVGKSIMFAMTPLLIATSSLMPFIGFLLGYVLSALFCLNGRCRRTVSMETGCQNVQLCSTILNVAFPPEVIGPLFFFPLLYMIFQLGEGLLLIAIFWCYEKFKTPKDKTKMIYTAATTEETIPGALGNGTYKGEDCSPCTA
As to the kind of experiment: Binding of FITC-labeled polypeptide to NTCP-293 cells. The conditions noted are these: FITC label; for binding to NTCP-293 cells: 293 cells transfected with NTCP; for binding to 293 cells not transfected with NTCP (BLANK-293): control cells. From the text: NTCP-293 cell line was formed by transfecting non-hepatocyte-derived 293 cells with NTCP.

The target in test [2] is sodium taurocholate cotransporting polypeptide (NTCP) expressed on transfected 293 cells (NTCP-293) (human) (UniProt Q14973). Description: cell-based or functional assay.
Where [3] appears, read: listed as hepalatide labeled with FIFC.

hepalatide, sequence (P31868 13-59): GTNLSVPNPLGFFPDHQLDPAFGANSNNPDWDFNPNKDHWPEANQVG

Turning to “FITC-hepalatide: hepalatide (Cmyr-47) fluorescently labeled by FITC at amino acid K at position 37”, in test [1], the “binding to NTCP-293 cells” value is given as “bound to NTCP-293 cells” and the “binding to 293 cells not transfected with NTCP (BLANK-293)” value was “did not bind to 293 cells”. Besides, in test [1] (setting [3]), the “binding to NTCP-293 cells” value is recorded as “bind to NTCP expressing HEK293 cells” and the “binding to 293 cells not transfected with NTCP (BLANK-293)” value is listed as “do not bind to control HEK293 cells”.
For hepalatide (peptide), the IC50 of inhibition of NTCP-293 uptake of 3H-labeled bile acid (3H-TA) in test [2] turned out to be 0.839 mg/L.
